Assay results published in doi:10.1101/2023.04.13.536802 (bioRxiv, 2023).
Where no end group is shown, it is not given here.

Target: recombinant transferrin receptor 1 (TfR1) ectodomain (residues C89-F763) (UniProt Q62351 89-763)
Assay: BLI

Chain of recombinant transferrin receptor 1 (TfR1) ectodomain (residues C89-F763) (Q62351 89-763): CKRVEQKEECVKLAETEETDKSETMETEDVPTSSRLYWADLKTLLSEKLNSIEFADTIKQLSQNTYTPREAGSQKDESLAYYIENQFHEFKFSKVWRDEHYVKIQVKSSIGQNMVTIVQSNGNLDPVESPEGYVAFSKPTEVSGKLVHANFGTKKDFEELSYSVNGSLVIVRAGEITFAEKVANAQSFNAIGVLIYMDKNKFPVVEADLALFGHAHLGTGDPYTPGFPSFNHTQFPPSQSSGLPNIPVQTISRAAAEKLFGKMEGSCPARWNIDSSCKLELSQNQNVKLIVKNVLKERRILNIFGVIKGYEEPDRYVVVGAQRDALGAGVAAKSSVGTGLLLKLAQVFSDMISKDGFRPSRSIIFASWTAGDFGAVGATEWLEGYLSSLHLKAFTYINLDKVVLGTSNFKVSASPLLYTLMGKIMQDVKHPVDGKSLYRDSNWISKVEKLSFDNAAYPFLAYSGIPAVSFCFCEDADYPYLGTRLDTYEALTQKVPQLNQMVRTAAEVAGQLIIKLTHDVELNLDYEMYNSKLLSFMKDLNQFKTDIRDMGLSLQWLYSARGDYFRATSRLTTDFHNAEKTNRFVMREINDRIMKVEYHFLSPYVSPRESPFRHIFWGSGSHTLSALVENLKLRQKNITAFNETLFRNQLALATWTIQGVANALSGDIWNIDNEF

Kd: 26 nM
B1: T12, 12-mer peptide that binds transferrin receptor 1 (peptide)
peptide: THRPPMWSPVWP
modifications: also: biotin, position not given here
